# Measured values: patent US12139520B2 (priority 2020, dated 2024)
# Where a chain is given by its changes, count along the chain named. Numbered stars: 1 amine (or outer) side, 2 acyl side, 3 side chain; on linkers, the order of the positions; unused ones are H or OH. Bridge positions count the residues as written; N and C are the ends. Square brackets hold non-standard residues; d marks the D form. Side chains are listed from the residue outwards. Ends that are not written are not given here. * marks the point of attachment. C20 diacid = O=C(O)CCCCCCCCCCCCCCCCCCC(=O)*; γGlu = O=C(O)[C@H](CCC(=O)[*:2])N[*:1]; Hyp = O=C(O)[C@@H]1C[C@@H](O)CN1; Trx = NC[C@H]1CC[C@H](C(=O)O)CC1; AEEA = NCCOCCOCC(=O)O
# B1: SEQ ID NO: 219 (peptide)
# peptide: GCRTGTCTVQRLAHQIYQFTNKDKDNVAPRSKISPQH[Hyp]-NH2
# modifications: disulfide 2-7 (inferred); ends not checked
# B2: SEQ ID NO: 213 (peptide)
# peptide: GCRTGTCTVQRLAHQIWQFTDKFKDNVAPRSKISPQT[Hyp]-NH2
# modifications: disulfide 2-7 (inferred); ends not checked
# B3: SEQ ID NO: 204 (peptide)
# peptide: GCRTGTCTVQRLAHQIYQFTDKDKDNVAPRSKVSPNG[Hyp]-NH2
# modifications: disulfide 2-7 (inferred); ends not checked
# B4: SEQ ID NO: 207 (peptide)
# peptide: KCNTATCATQRLANFLVHSSNNFGAILPSTKIGSNGY
# B5: SEQ ID NO: 203 (peptide)
# peptide: GCRTGTCTVQRLAHQIYQFTDKFKDNVAPRSKISPQP[Hyp]
# modifications: ends and bridges not checked
# B6: SEQ ID NO: 227 (peptide)
# peptide: GCRTGTCTVQRLAHQIHQFTNKDKDNVAPRSKISPQT[Hyp]-NH2
# modifications: disulfide 2-7 (inferred); ends not checked
# B7: SEQ ID NO: 224 (peptide)
# peptide: GCRTGTCTVQRLAHQIYQFTDKDKDNVAPRSNVSPQG[Hyp]-NH2
# modifications: disulfide 2-7 (inferred); ends not checked
# B8: SEQ ID NO: 222 (peptide)
# peptide: GCRMGTCTVQRLAHQIYQFTDKDKDNVAPSSKISPQT[Hyp]-NH2
# modifications: disulfide 2-7 (inferred); ends not checked
# B9: SEQ ID NO: 215 (peptide)
# peptide: GCRTGTCTVQRLAHQIYQFTDKFKDNVAPRSKISPQTM
# B10: SEQ ID NO: 226 (peptide)
# peptide: B9 peptide with D21N, F23D, M38W
# B11: SEQ ID NO: 205 (peptide)
# peptide: KCRFGTCTVQRLAHQIYQFTDKDKDNVAPRSKISPQT[Hyp]-NH2
# modifications: disulfide 2-7 (inferred); ends not checked
# B12: SEQ ID NO: 202 (peptide)
# peptide: GCRWGTCTVQRLAHQIYQFTDKDKDNVAPSSKISPQT[Hyp]-NH2
# modifications: disulfide 2-7 (inferred); ends not checked
# B13: SEQ ID NO: 218 (peptide)
# peptide: GCRTGTCTVQRLAHQIYQFTDKFKDNVAPRSKISPQA[Hyp]-NH2
# modifications: disulfide 2-7 (inferred); ends not checked
# B14: SEQ ID NO: 208 (peptide)
# peptide: {C20 diacid-γGlu}-GCRFGTCTVQRLAHFLYQFTDKDKDNVAPRTNVGSNTY-NH2
# modifications: disulfide 2-7 (inferred); ends not checked
# B15: SEQ ID NO: 211 (peptide)
# peptide: GCRTGTCTVQRLAHQIYQFTDKFKDNVAPRSKISPQF[Hyp]-NH2
# modifications: disulfide 2-7 (inferred); ends not checked
# B16: SEQ ID NO: 210 (peptide)
# peptide: KCNTATCTVQRLAHQAYQFTDKDKDNVAPPTNVGSNG[Hyp]-NH2
# modifications: disulfide 2-7 (inferred); ends not checked
# B17: SEQ ID NO: 223 (peptide)
# peptide: {C20 diacid-γGlu}-GCRFGTCTVQRLAHFLYQFTDKDKDNVAPRTKVGSNGY-NH2
# modifications: disulfide 2-7 (inferred); ends not checked
# B18: SEQ ID NO: 221 (peptide)
# peptide: {C20 diacid-Trx-γGlu-AEEA-AEEA}-K([AEEA-AEEA-γGlu-Trx-C20 diacid])CNTATCTVQRLAEQIYQFTDKDKDNVAPPTNVGSNG[Hyp]
# modifications: disulfide 2-7 (inferred); ends not checked
# B19: SEQ ID NO: 216 (peptide)
# peptide: GCRTGTCTVQRLAHQIYQFTDKDKDNVAPRTKVSPQG[Hyp]-NH2
# modifications: disulfide 2-7 (inferred); ends not checked
# B20: SEQ ID NO: 21 (peptide)
# peptide: {C20 diacid-γGlu}-KCNTATCTVQRLANQIYQFTDKDKDNVAPPTNVGSNG[Hyp]-NH2
# modifications: disulfide 2-7 (inferred); ends not checked
# B21: SEQ ID NO: 228 (peptide)
# peptide: GCRTGTCTVQRLAHQIHQFTDKDKDNVAPRSKISPQT[Hyp]-NH2
# modifications: disulfide 2-7 (inferred); ends not checked
# B22: SEQ ID NO: 212 (peptide)
# peptide: GCRFGTCTVQRLAHQIYQFTDKFKDNVAPRSKISPQT[Hyp]-NH2
# modifications: disulfide 2-7 (inferred); ends not checked
# B23: SEQ ID NO: 206 (peptide)
# peptide: GCRTGTCTVQRLAHQIYQFTDKFKDNVAPRSKISPQK[Hyp]-NH2
# modifications: disulfide 2-7 (inferred); ends not checked
# B24: SEQ ID NO: 23 (peptide)
# peptide: KCNTATCTVQRLAHQIYQFADKDKDNVAPPTNVGSNG[Hyp]-NH2
# modifications: disulfide 2-7 (inferred); ends not checked
# B25: SEQ ID NO: 22 (peptide)
# peptide: {C20 diacid-γGlu}-KCNTATCTVQRLAHQITQFTDKDKDNVAPPTNVGSNG[Hyp]-NH2
# modifications: disulfide 2-7 (inferred); ends not checked
# B26: SEQ ID NO: 225 (peptide)
# peptide: {C20 diacid-γGlu}-KCNTLTCTVQRLAHQIYQFTDKDKDNVAPPTNVGSNG[Hyp]-NH2
# modifications: disulfide 2-7 (inferred); ends not checked
# B27: SEQ ID NO: 217 (peptide)
# peptide: GCRFGTCTVQRLAHQLYQFTDKDKDNVAPRSKISPQT[Hyp]-NH2
# modifications: disulfide 2-7 (inferred); ends not checked
# B28: SEQ ID NO: 209 (peptide)
# peptide: GCRTGTCTVQRLAHQIYQFTDKDKDNVAPRTKVSPQGY
# B29: SEQ ID NO: 220 (peptide)
# peptide: GCRTGTCTVQRLAHQIYQFTNKDKDNVAPRSKISPQW[Hyp]-NH2
# modifications: disulfide 2-7 (inferred); ends not checked
# B30: SEQ ID NO: 214 (peptide)
# peptide: GCRTGTCTVQRLAHQIYQFTDKDKDNVAPRTNISPQG[Hyp]-NH2
# modifications: disulfide 2-7 (inferred); ends not checked
# Molecular target: hAM1R (human, UniProt Q16602)
# Assay: cell-based or functional assay
row,Binder,hAM1R EC50 (cAMP) [µM]
1,B1,4.25
2,B2,> 5
3,B3,2.98
4,B4,> 5
5,B5,> 5
6,B6,4.57
7,B7,2.98
8,B8,> 5
9,B9,> 5
10,B10,> 5
11,B11,3.23
12,B12,> 5
13,B13,> 5
14,B14,0.242
15,B15,2.76
16,B16,> 5
17,B17,0.0477
18,B18,> 5
19,B19,2.98
20,B20,> 5
21,B21,> 5
22,B22,> 5
23,B23,> 5
24,B24,> 5
25,B25,> 5
26,B26,> 5
27,B27,> 5
28,B28,1.02
29,B29,> 5
30,B30,2.98

# Molecular target: T1, hAMY3R (human, UniProt P30988)
# T1 sequence 1: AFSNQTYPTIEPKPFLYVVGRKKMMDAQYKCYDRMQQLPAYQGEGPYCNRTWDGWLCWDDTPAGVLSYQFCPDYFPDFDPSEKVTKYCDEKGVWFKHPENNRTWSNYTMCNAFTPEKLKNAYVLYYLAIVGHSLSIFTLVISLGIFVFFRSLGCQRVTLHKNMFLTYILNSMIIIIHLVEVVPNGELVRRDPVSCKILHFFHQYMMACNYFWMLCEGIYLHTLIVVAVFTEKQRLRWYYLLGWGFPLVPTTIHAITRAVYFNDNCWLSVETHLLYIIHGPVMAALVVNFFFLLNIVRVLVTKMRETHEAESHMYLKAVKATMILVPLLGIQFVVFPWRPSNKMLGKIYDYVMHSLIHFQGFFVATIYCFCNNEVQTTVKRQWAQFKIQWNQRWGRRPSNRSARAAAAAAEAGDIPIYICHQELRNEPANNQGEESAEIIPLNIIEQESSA
# T1 sequence 2: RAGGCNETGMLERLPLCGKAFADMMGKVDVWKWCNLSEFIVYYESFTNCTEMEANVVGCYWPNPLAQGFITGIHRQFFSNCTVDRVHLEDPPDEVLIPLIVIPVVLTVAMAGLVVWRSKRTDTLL
# Assay: cell-based or functional assay
row,Binder,hAMY3R EC50 (cAMP) [nM]
1,B1,0.171
2,B2,0.153
3,B3,0.129
4,B4,0.131
5,B5,0.127
6,B6,0.187
7,B7,0.186
8,B8,0.184
9,B9,0.161
10,B10,0.186
11,B11,0.13
12,B12,0.126
13,B13,0.169
14,B14,0.133
15,B15,0.151
16,B16,0.137
17,B17,0.186
18,B18,0.184
19,B19,0.164
20,B20,0.008
21,B21,0.205
22,B22,0.153
23,B23,0.13
24,B24,0.008
25,B25,0.008
26,B26,0.186
27,B27,0.167
28,B28,0.136
29,B29,0.182
30,B30,0.157
